According to the Human Domainome abundance scans (Beltran et al. 2025):
± gives the uncertainty stated by the source.

B1: POU domain, class 3, transcription factor 4, residues 280 to 335; numbered along this chain, P49335 (parent)
chain: KKRTSIEVSVKGVLETHFLKCPKPAAQEISSLADSLQLEKEVVRVWFCNRRQKEKR

Variants of: B1
Test: abundance fitness (aPCA) (normalised: wild type 0, dead -1); higher = more abundant; growth selection in yeast, the domain comes from the species named
Settings: Homo sapiens

Abundance fitness of substitutions, site by site:
L14: K -0.655 ± 0.22
A26: S -0.095 ± 0.14; F -0.451 ± 0.26; K -0.415 ± 0.21; T -0.017 ± 0.17; C -0.211 ± 0.18; E 0.385 ± 0.15; G -0.37 ± 0.12; P 0.149 ± 0.19; W -0.05 ± 0.12; N -0.043 ± 0.22; Y -0.254 ± 0.23; I -0.168 ± 0.21; M 0.108 ± 0.18; L -0.07 ± 0.11; D 0.396 ± 0.2; V -0.254 ± 0.13; H -0.237 ± 0.23
Q27: A 0.078 ± 0.12; G -0.172 ± 0.1; C -0.16 ± 0.18; H -0.074 ± 0.26; D 0.147 ± 0.19
A25: I -0.297 ± 0.22; G 0.313 ± 0.1; V -0.476 ± 0.14; C 0.18 ± 0.11; L -0.262 ± 0.11; Q 0.045 ± 0.16; R -0.088 ± 0.096; F -0.769 ± 0.21; S 0.457 ± 0.1; P -0.31 ± 0.2; H -0.096 ± 0.27; M -0.073 ± 0.19; D 0.545 ± 0.18; T 0.495 ± 0.14; W -0.764 ± 0.17; K -0.015 ± 0.33
L19: A -0.187 ± 0.14; V -0.437 ± 0.13; Q -0.045 ± 0.22; P -0.774 ± 0.26; F -0.941 ± 0.3; K -0.461 ± 0.23; C -0.385 ± 0.16; G -0.504 ± 0.12; D -0.363 ± 0.28; N -0.343 ± 0.24; S -0.191 ± 0.14; W -0.624 ± 0.2; M 0.039 ± 0.2; Y -0.518 ± 0.29; I -0.441 ± 0.32; T -0.019 ± 0.19; R -0.236 ± 0.1; E -0.391 ± 0.18
E7: I -0.357 ± 0.11; W -0.014 ± 0.26; L -0.163 ± 0.087; K 0.271 ± 0.15; H 0.105 ± 0.089; M -0.191 ± 0.17; Q 0.013 ± 0.14; G 0.381 ± 0.12; A -0.082 ± 0.11; F -0.513 ± 0.12; P 0.607 ± 0.084; S 0.528 ± 0.083; R -0.093 ± 0.095; D 0.327 ± 0.14; T 0.526 ± 0.087; Y -0.285 ± 0.099; V -0.362 ± 0.12
I6: N -0.249 ± 0.095; R -0.292 ± 0.12; F -0.397 ± 0.099; S -0.152 ± 0.086; V -0.215 ± 0.093; L 0.018 ± 0.083; T -0.201 ± 0.096; G -0.197 ± 0.12; C -0.626 ± 0.13; P -0.169 ± 0.091; Y -0.613 ± 0.12; A -0.437 ± 0.12; Q -0.123 ± 0.15; D -0.249 ± 0.12; W -0.244 ± 0.23; H -0.128 ± 0.097; E -0.303 ± 0.2
F18: T -0.732 ± 0.18; K -0.461 ± 0.21; E -0.851 ± 0.17; A -0.891 ± 0.14; V -0.56 ± 0.11; I -0.851 ± 0.26; L -1.03 ± 0.16; P -0.992 ± 0.29; R -0.812 ± 0.12; H -0.251 ± 0.22; M -0.893 ± 0.22; C -0.745 ± 0.21; Y -0.195 ± 0.18; D -0.814 ± 0.27; Q -1.16 ± 0.39; W -0.485 ± 0.13; G -0.741 ± 0.11; S -0.719 ± 0.14; N -0.859 ± 0.27
T16: G 0.041 ± 0.13; W -0.347 ± 0.18; A 0.197 ± 0.14; I -0.428 ± 0.27; Y -0.306 ± 0.42; D 0.157 ± 0.26; C -0.283 ± 0.26; L -0.304 ± 0.14; Q 0.044 ± 0.2; V -0.504 ± 0.13; E 0.368 ± 0.16; N -0.223 ± 0.29; K 0.572 ± 0.15; S 0.217 ± 0.13; M -0.214 ± 0.18; P -0.839 ± 0.26; R 0.059 ± 0.13
P24: W -0.514 ± 0.27; Y -1.07 ± 0.43; G -0.842 ± 0.4; L -0.753 ± 0.26; R -0.405 ± 0.22; H -0.688 ± 0.47
S5: T 0.217 ± 0.15; V 0.275 ± 0.12; W -0.162 ± 0.14
S9: E 0.443 ± 0.27; F -0.348 ± 0.28; H 0.277 ± 0.45; A -0.056 ± 0.19; L -0.24 ± 0.35; M -0.392 ± 0.25; D 0.539 ± 0.28; T 0.008 ± 0.24; K 0.237 ± 0.33; V -0.173 ± 0.15; G 0.172 ± 0.2; C -0.017 ± 0.27; P -0.335 ± 0.48; N 0.52 ± 0.28
P22: K -0.315 ± 0.21; M -0.553 ± 0.21; C -0.502 ± 0.27; S -0.427 ± 0.13; D -0.363 ± 0.23; Y -0.949 ± 0.33; W -0.166 ± 0.22; F -0.732 ± 0.23; R -0.37 ± 0.15; G -0.909 ± 0.19; Q 0.208 ± 0.19; L -0.783 ± 0.15; I -0.606 ± 0.28; T -0.796 ± 0.23; V -0.469 ± 0.13; H -0.513 ± 0.26; E -0.702 ± 0.21
